Substitutions are numbered along the chain they refer to.
B1: Fab366 (Fab, V domains shown)
VH: QVQLVQSGAEVKKPGASARVSCKASGYTLTDFYLHWVRQAPGQGLEWMGWLNPHSGGTNYAQKFLGRVSMTRDTSISTAYMELNKLISDDTAVYFCVRSDQEALRGAFDIWGQGTMVFVSS
VL: DIQMTQSPSSLSASVGDTVTITCRASQSINDYLNWYQQKPGKAPKLLIYATSSLHSGVPSRFSGSGFGTDFTLTISSLQPEDSATYLCQQSHSLWTFGQGTKVEVK
notes: also called mAb366; source: ExpiCHO cells, purified (HiTrap Protein G, SEC)
B2: Fab399 (Fab, V domains shown)
VH: EVQLVESGGGLVQPGRSLRLSCTTSGFTFGDYAMSWFRQAPGKGLEWVGFIRSKGFGGTAEYAAFVKGRFTISRDDSRSIAYLQMTSLKPEDTAVYYCSRVGVVIATAVYWGQGTLVTVSS
VL: DILMTQTPLSLSVTPGQPASISCKSSQSLLDNDGKTYLYWYLQKPGQSPQLLIYEVSNRFSGVPERFSGSGSGTDFTLKIRRVEAEDVGVYYCMQRIDLPWTFGQGTKVEIK
notes: also called mAb399; source: ExpiCHO cells, purified (HiTrap Protein G, SEC)
B3: Fab239 (Fab, V domains shown)
VH: QVQLVESGGGVVQPGRSLRLSCAASRLTFRNFGMHWVRQTPGKGLEWVAVIWHDGSNKFYADSVEGRFTISRDNSKNTLYLQMNSLRDEDTAIYYCAKDWGGASDRVFDYWGRGTLVIVSS
VL: DIQMTQSPSTLSASVGDRVTITCRASQSVSTSLAWYQQKPGKAPNLLIYQASTLYRGVPSRFSGSGSGTEFTLTIGSLQPDDFATYYCQHYNSYSRITFGQGTRLEIK
notes: also called mAb239; source: ExpiCHO cells, purified (HiTrap Protein G, SEC)
B4: Fab239 (Fab, V domains shown)
VH: B3 VH
VL: B3 VL
notes: as for B3
B5: Fab364 (Fab, V domains shown)
VH: QVQLVESGGGVVQPGGSLRLSCAASGFTFSGYGMHWVRQVPGKGLEWVAIIWFDGSQKYYADSVQGRFTISRDNSKKTLFLRMNSLRAEDTAVYYCAKVHDDEPTQDYWGQGTLVTVSS
VL: DIQMTQSPSTLSASVGDRVTITCRASQGISTSLAWYQQKPGKAPKLLIYKASSLESGVPSRFSGSGSGTEFTLTITSLQPEDFATYYCQQYKRYWTFGQGTKVEIK
notes: also called mAb364; source: ExpiCHO cells, purified (HiTrap Protein G, SEC)
B6: Fab395 (Fab, V domains shown)
VH: QEQLVESGGGVVQPGRSLRLSCAAASEFCFSCYGMHWVRQAPGKGLEWVAVIWHDGSNQHFADSVKGRFTISRDNSKNIMYLQMNSLRAEDTAVYYCASATRYDILTGAFDYWGQGTLVTVSS
VL: B5 VL with G28S, S32W, T76S, E81D, K92S
notes: also called mAb395; source: ExpiCHO cells, purified (HiTrap Protein G, SEC)
B7: Fab364 (Fab, V domains shown)
VH: B5 VH
VL: B5 VL
notes: as for B5
B8: Fab224 (Fab, V domains shown)
VH: EVQLVESGGGLVQPGRSLRLPCTASGFSFGDHAMSWVRQAPGKGLEWVGFIRKTTYGATTHYAAAVRGRFTISRDDSKSIVYLQMNSLKTEDTAVYFCTRVQLDYGPGYQYYGMDVWGQGTTVTVSS
VL: ESVLTQPPSVSGAPGQRVTISCTGMNSNIGAGYDVYWYQQLPGRAPKLLIYGNSNRPSGVPDRFSGSRSGTSASLAITGLQAEDEADYYCQSYDTSLNGWAFGGGTKLTVL
notes: also called mAb224; source: ExpiCHO cells, purified (HiTrap Protein G, SEC)
B9: Fab224 (Fab, V domains shown)
VH: B8 VH
VL: B8 VL
notes: as for B8
B10: Fab356 (Fab, V domains shown)
VH: VQLVESGGGVVQPGRSLRLSCAASGFTFRNFGMHWVRQTPGKGLEWVAVIWHDGSNKFYADSVEGRFTISRDNSKNMIYLQMNSLRVEDTAIYYCARDSLFYDHDNSGYYGYWGQGTLVTVSS
VL: QIVMTQSPATVSVSPGERATLSCRASRSVTSKLAWYQQKPGQAPRLLIYGASTRATGIPARFSGSGSGTEFTLTISSLQSEDFAVYFCQQYNNGFTFGPGTKVDFK
notes: also called mAb356; source: ExpiCHO cells, purified (HiTrap Protein G, SEC)
B11: Fab356 (Fab, V domains shown)
VH: B10 VH
VL: B10 VL
notes: as for B10
B12: Fab311 (Fab, V domains shown)
VH: EVQLVESGGGVVPPGRSLRLSCATSGFTFSNYGMHWVRQAPGKGLEWVAIIWYDGSRNFYAASVEGRFTISRDNSKNTLYLQMNSLRVEDTAVYYCARAAYYDTSGYGDYWGQGTLVTVSS
VL: ESVLTQPPSVSGAPGQTVTISCTGGSSNIGAGYDVHWYQQLPGTAPKLLIYGNINRPSGVPDRFSGSKSGTSASLAITGLQAEDEADYYCQSYDRRLSGSWVFGGGTKLTVL
notes: also called mAb311; source: ExpiCHO cells, purified (HiTrap Protein G, SEC)
B13: Fab311 (Fab, V domains shown)
VH: B12 VH
VL: B12 VL
notes: as for B12
B14: Fab317 (Fab, V domains shown)
VH: QMQLVESGGGVVQPGRSLRLSCTASGFTFSTYAMHWVRQSPGQGLQWVAVISYHSTNKYYEDSVRGRFTISRDNSKNTLYLQMNSLRAEDTAVYYCARDGYSSSFFDFWGQGTLVTVSS
VL: DIQMTQSPSTLSASVGDRVAITCRASQSISRWLAWYQQQPGKAPKLLMSGASVLESGVPSRFSGSGSGTEFTLTISSLQPDDFATYYCQHYNSYFVTFGQGTKVEIK
notes: also called mAb317; source: ExpiCHO cells, purified (HiTrap Protein G, SEC)
B15: Fab317 (Fab, V domains shown)
VH: B14 VH
VL: B14 VL
notes: as for B14
B16: Fab397 (Fab, V domains shown)
VH: EVQLVKSGGGLVKPGGSLRLSCAVSGFTFTDAWMSWVRQAPGKGPEWVGRIKSNPDGGTTDYAAPVRGRFTISRDDSKNTLYLQMNNLKTEDTAVYYCITDRDFYRSGGSWGQGTLVTV
VL: DIVMTQSPLSLPVTPGEPASISCRSRQSLLYSNGDNYLDWYLQKPGQSPQLLIYLGSNRAPGVPDRFSGSGSGTDFTLKISRVEAEDVGVYYCMQTLQTPHTFGQGTKLEIK
notes: also called mAb397; source: ExpiCHO cells, purified (HiTrap Protein G, SEC)
B17: Fab397 (Fab, V domains shown)
VH: B16 VH
VL: B16 VL
notes: as for B16

Experiments:
Conditions in all cases: both partners purified
[1] = target: T1, Ac-[residues removed]-NH2 (NPNA4 peptide) (Plasmodium falciparum (synthetic CSP …)); experiment: ITC; peptide in the syringe, Fab (~10 uM) in the cell; DPBS, 25 °C; single-site binding model; triplicate, mean ± SD; No. of sites = peptide per Fab
T1 construct: also called 16-mer peptide; source: synthetic peptide; bought: Innopep Inc

[2] = target: T2, Ac-[residues removed]-NH2 (NPNA2 peptide) (Plasmodium falciparum (synthetic CSP …)); experiment: as above
T2 construct: also called 8-mer peptide; source: synthetic peptide; bought: Innopep Inc

[3] = target: T3, Ac-[residues removed]-NH2 (NPNA6 peptide) (Plasmodium falciparum (synthetic CSP …)); experiment: as above
T3 construct: also called 24-mer peptide; source: synthetic peptide; bought: Innopep Inc

[4] = target: T4, NPNA4 peptide (Ac-[residues removed]-NH2) (Plasmodium falciparum (synthetic CSP …); experiment: ITC; peptide in the syringe, Fab (~10 uM) in the cell; DPBS; 25 C; single-site binding model; triplicate; apparent affinity
T4 construct: source: synthetic peptide, bought: Innopep Inc

[5] = target: T5, NPNA6 peptide (Ac-[residues removed]-NH2) (Plasmodium falciparum (synthetic CSP …); experiment: as above
T5 construct: source: synthetic peptide, bought: Innopep Inc

[6] = target: T6, NPNA2 peptide (Ac-[residues removed]-NH2) (Plasmodium falciparum (synthetic CSP …); experiment: as above
T6 construct: source: synthetic peptide, bought: Innopep Inc

| Binder | stoichiometry N [1] | stoichiometry N [2] | stoichiometry N [3] | Kd [4] [nM] | Kd [5] [nM] | Kd [6] [nM] |
| --- | --- | --- | --- | --- | --- | --- |
| B1 | 1.21 | 1.21 | 0.67 |  |  |  |
| B2 | 1.74 | 3.23 | 0.737 |  |  |  |
| B3 | 0.572 | 1.34 | 0.348 |  |  |  |
| B4 |  |  |  | 20 | 10 | 641 |
| B5 | 0.634 | 1.41 | 0.445 |  |  |  |
| B6 | 0.608 | 1.35 | 0.432 |  |  |  |
| B7 |  |  |  | 28 | 27 | 47 |
| B8 | 1.26 | 1.59 | 0.749 |  |  |  |
| B9 |  |  |  | 126 | 141 | 14200 |
| B10 | 0.542 | 1.29 | 0.354 |  |  |  |
| B11 |  |  |  | 82 | 30 | 8270 |
| B12 | 0.578 | 1.27 | 0.386 |  |  |  |
| B13 |  |  |  |  | 19 | 152 |
| B14 | 0.95 | 1.36 | 0.723 |  |  |  |
| B15 |  |  |  | 70 | 111 | 132 |
| B16 | 1.3 | 1.18 | 0.73 |  |  |  |
| B17 |  |  |  | 255 | 92 | 2740 |
